Assays:
HLA-A*02:01 [1] = assay: IEDB peptide-MHC binding, cellular MHC/competitive/fluorescence; ≥ and ≤ were set here for values at or beyond the usual limits of such assays
HLA-A*02:06 = assay: as above
HLA-A*02:02 = assay: as above
HLA-A*68:02 [2] = assay: as above
HLA-A*02:03 = assay: IEDB peptide-MHC binding, purified MHC/competitive/radioactivity; ≥ and ≤ were set here for values at or beyond the usual limits of such assays
HLA-A*68:02 [3] = assay: as above
HLA-A*02:01 [4] = assay: as above; conditions: source organism: Vaccinia virus WR
[5] = source organism: Vaccinia virus WR
[6] = source organism: Influenza A virus

Sequence | IC50 (HLA-A*02:01 [1]; [5]) [µM] | IC50 (HLA-A*02:06; [5]) [µM] | IC50 (HLA-A*02:02; [5]) [µM] | IC50 (HLA-A*68:02 [2]; [5]) [µM] | IC50 (HLA-A*02:03; [5]) [µM] | IC50 (HLA-A*68:02 [3]; [5]) [µM] | IC50 (HLA-A*02:01 [4]) [µM] | IC50 (HLA-A*02:01 [1]; [6]) [µM] | IC50 (HLA-A*02:06; [6]) [µM] | IC50 (HLA-A*02:02; [6]) [µM] | IC50 (HLA-A*02:03; [6]) [µM] | IC50 (HLA-A*68:02 [3]; [6]) [µM] | IC50 (HLA-A*68:02 [2]; [6]) [µM]
LMLHNPTSET | 8.92 | 11.1 | 39.3 | ≥ 70 | 4.48 | – | – | – | – | – | – | – | –
EIKAEMQLKI | 27.5 | 14.3 | 16.9 | 5.12 | 4.76 | – | – | – | – | – | – | – | –
EVGTNFGTI | 20.1 | 19.9 | 5.76 | – | 1.94 | 0.069 | – | – | – | – | – | – | –
YVSSSYKDI | 31.2 | 16.6 | 5.04 | – | 1.2 | 2.63 | – | – | – | – | – | – | –
NMWREILSNT | – | 12 | 6.07 | 63.2 | 0.056 | – | 0.997 | – | – | – | – | – | –
GADINLMPI | – | – | – | – | – | – | – | 11.9 | 5.77 | 7.41 | 3.3 | 4.41 | –
DITNILGGV | 11.4 | 7.43 | 9.88 | – | 1.64 | 0.012 | – | – | – | – | – | – | –
LANERYRSA | 49.1 | ≥ 70 | 31.3 | ≥ 70 | 0.554 | – | – | – | – | – | – | – | –
NTITTFIPI | – | 7.77 | 15.5 | – | 0.988 | 0.0012 | 0.857 | – | – | – | – | – | –
PTSETMYLT | 34.9 | ≥ 70 | 10.4 | – | 3.64 | 4.04 | – | – | – | – | – | – | –
GILIYDDNI | 11.3 | 13.3 | 11.7 | 33.5 | 1.7 | – | – | – | – | – | – | – | –
EQYTCNKPYT | ≥ 70 | 45.7 | 14 | 20.4 | 3.01 | – | – | – | – | – | – | – | –
TVEFDRDKVV | 30.9 | 30.8 | 16.2 | – | 1.59 | 2.63 | – | – | – | – | – | – | –
EVLMSPCRM | 27.9 | 11.8 | 6.83 | – | 0.651 | 1.52 | – | – | – | – | – | – | –
SLETVKMGA | 26.1 | 23.4 | 11.2 | ≥ 70 | 0.547 | – | – | – | – | – | – | – | –
VTKRDESSI | ≥ 70 | 38.1 | 8.05 | 8.1 | 2.14 | – | – | – | – | – | – | – | –
MISTYPGNT | 22.1 | 25.7 | 5.49 | 14.7 | 0.229 | – | – | – | – | – | – | – | –

Sequence | IC50 (HLA-A*02:01 [1]; [5]) [µM] | IC50 (HLA-A*02:06; [5]) [µM] | IC50 (HLA-A*02:02; [5]) [µM] | IC50 (HLA-A*68:02 [2]; [5]) [µM] | IC50 (HLA-A*02:03; [5]) [µM] | IC50 (HLA-A*68:02 [3]; [5]) [µM] | IC50 (HLA-A*02:01 [4]) [µM] | IC50 (HLA-A*02:01 [1]; [6]) [µM] | IC50 (HLA-A*02:06; [6]) [µM] | IC50 (HLA-A*02:02; [6]) [µM] | IC50 (HLA-A*02:03; [6]) [µM] | IC50 (HLA-A*68:02 [3]; [6]) [µM] | IC50 (HLA-A*68:02 [2]; [6]) [µM]
FISYNRHNDT | 36.3 | 11.2 | 6.84 | – | 4.93 | 2.28 | – | – | – | – | – | – | –
IIELPYVGDT | 46.8 | 17 | 13.7 | ≥ 70 | 4.42 | – | – | – | – | – | – | – | –
SVNASKTINA | 19.3 | 28.7 | 17.3 | – | 0.731 | 0.629 | – | – | – | – | – | – | –
DITNILGGVL | 16.2 | 19 | 12.3 | – | 3.68 | 0.515 | – | – | – | – | – | – | –
TAGNKVDVDI | 40.2 | 38.1 | 11 | 9.83 | 3.5 | – | – | – | – | – | – | – | –
AVTLNRIKI | – | 7.61 | 10.8 | – | 3.34 | 4.95 | 1.15 | – | – | – | – | – | –
KTKISVEKI | 26.9 | 10.7 | 7.6 | ≥ 70 | 0.112 | – | – | – | – | – | – | – | –
SVDAMIHKT | 24.1 | 10.6 | 5.02 | – | 3.66 | 0.878 | – | – | – | – | – | – | –
SMYTRLRQDT | 32.9 | 42 | 6.56 | ≥ 70 | 1.14 | – | – | – | – | – | – | – | –
EVMPEKRNVV | 44.3 | 12.1 | 20.2 | – | 2.62 | 0.107 | – | – | – | – | – | – | –
AAAKTPVIVV | 44.3 | 13.4 | 8.04 | 5.25 | 1.52 | – | – | – | – | – | – | – | –
QVKDNIISRT | 40.9 | 34.3 | 17.8 | 24.2 | 0.421 | – | – | – | – | – | – | – | –
NISFKSINKV | 14.5 | 11.7 | 20.3 | – | 1.53 | 2.03 | – | – | – | – | – | – | –
AIRGQYSGFV | – | – | – | – | – | – | – | 12.9 | 42.8 | 6.28 | 0.092 | – | 18.4
GLIVILFIM | – | 5.29 | 13.4 | – | 1.39 | 1.38 | 1.66 | – | – | – | – | – | –
STKADAVVA | 29.3 | 16.2 | 8.19 | – | 4.95 | 0.82 | – | – | – | – | – | – | –
WIKNLETYT | 49.5 | 8.2 | 18.3 | ≥ 70 | 0.637 | – | – | – | – | – | – | – | –

Source: the Immune Epitope Database (IEDB)
